Here are results for one substance from US6881834.

One series deals with Sp3 (UniProt Q02447). As to the kind of experiment: cell_activity. Particulars: luciferase induction in Drosophila cells.
The next series concerns the target Sp1 (UniProt P08047). As to the kind of experiment: cell_activity. Particulars: luciferase induction in Drosophila cells.

Sp1, sequence (P08047 2-785): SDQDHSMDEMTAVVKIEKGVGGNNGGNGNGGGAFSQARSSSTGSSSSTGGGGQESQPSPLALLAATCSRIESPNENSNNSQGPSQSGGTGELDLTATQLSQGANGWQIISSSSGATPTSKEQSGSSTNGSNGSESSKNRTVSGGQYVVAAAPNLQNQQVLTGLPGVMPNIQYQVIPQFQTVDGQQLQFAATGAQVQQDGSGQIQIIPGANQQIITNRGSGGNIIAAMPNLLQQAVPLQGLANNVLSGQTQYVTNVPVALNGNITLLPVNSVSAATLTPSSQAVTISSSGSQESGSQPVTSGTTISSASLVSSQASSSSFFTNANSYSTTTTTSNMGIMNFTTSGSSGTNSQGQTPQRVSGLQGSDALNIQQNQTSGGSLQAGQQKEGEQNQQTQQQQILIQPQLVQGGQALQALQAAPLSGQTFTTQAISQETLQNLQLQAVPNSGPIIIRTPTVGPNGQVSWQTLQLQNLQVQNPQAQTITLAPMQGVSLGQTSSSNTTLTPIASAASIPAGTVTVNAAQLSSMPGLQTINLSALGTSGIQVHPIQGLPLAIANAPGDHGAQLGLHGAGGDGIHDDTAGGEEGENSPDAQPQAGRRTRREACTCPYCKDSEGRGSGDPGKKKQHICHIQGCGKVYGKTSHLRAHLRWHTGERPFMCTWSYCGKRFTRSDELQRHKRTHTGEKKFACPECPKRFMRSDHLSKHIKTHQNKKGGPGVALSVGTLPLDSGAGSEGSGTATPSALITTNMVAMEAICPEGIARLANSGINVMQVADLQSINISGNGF
Sp3, sequence (Q02447 whole entry): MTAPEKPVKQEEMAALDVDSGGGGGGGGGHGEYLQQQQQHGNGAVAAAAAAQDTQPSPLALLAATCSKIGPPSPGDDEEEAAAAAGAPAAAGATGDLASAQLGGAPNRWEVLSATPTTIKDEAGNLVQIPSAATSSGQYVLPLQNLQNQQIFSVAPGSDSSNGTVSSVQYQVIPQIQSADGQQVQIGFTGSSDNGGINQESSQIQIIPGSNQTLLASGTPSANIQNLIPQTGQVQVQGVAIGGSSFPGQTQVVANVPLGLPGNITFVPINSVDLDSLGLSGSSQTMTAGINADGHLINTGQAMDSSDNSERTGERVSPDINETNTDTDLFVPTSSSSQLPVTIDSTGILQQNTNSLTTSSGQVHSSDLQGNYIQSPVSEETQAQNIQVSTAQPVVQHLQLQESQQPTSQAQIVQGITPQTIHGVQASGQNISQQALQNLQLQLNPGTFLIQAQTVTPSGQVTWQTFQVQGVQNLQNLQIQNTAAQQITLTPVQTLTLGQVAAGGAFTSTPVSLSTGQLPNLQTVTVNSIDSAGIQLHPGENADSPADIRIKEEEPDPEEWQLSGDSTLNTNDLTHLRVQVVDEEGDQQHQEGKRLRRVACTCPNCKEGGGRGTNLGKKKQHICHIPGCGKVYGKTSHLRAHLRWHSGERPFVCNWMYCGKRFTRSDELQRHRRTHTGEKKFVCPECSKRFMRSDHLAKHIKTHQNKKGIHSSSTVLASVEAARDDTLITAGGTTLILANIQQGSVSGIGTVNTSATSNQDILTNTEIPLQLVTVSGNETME

Regarding CD11c promoter -196/+30 (CD11c-luc), the results for the activity in the series with Sp3 and with Sp1 were 18.9 fold and 19.5 fold, respectively.
